One molecule from doi:10.1101/2022.11.08.515461 (bioRxiv, 2022) can be followed below.

The target of this experiment is yeast dynein_(MOTOR)^MT-B (microtubule-bound mutant of the motor domain) (budding yeast | T. thermophilus) (UniProt P34945). Kind of experiment: mass photometry.
Sequence of yeast dynein_(MOTOR)^MT-B (microtubule-bound mutant of the motor domain) (budding yeast | T. thermophilus) (P34945 whole entry, change not shown, the tested form may be a part): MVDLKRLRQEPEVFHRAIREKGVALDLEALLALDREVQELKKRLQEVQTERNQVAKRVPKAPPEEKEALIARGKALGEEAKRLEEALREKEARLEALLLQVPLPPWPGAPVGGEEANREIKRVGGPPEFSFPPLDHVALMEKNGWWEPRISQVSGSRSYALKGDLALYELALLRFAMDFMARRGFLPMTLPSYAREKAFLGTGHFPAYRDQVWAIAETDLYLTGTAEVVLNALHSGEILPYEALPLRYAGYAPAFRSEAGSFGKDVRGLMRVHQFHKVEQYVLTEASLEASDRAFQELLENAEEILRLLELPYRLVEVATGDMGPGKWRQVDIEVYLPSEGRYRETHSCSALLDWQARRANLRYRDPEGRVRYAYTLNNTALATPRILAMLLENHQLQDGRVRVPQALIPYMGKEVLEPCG

B1: Pac1-SNAP (natural protein)
chain: MTNWQQQLPLTDTQKNELDKSVLRYLNWNYKQTVRHEHAQDYESVRHAIVTLSGFLLQESVDRQEFISNNDTSNESMVDIDELLLPKKWNSIVRLQKKIIELEQNTETLVSQIKDLNTQVSELAQFKPTTSNGTSAHNVLKWIPRNLPSCLINVESSVTSVKLHPNLPIVFVATDHGKLYAFDLFNYTIPLASLQSHTKAITSMDVLFTNYTNSSKKNYLVIVTASKDLQIHVFKWVSEECKFQQIRSLLGHEHIVSAVKIWQKNNDVHIASCSRDQTVKIWDFHNGWSLKTFQPHSQWVRSIDVLGDYIISGSHDTTLRLTHWPSGNGLSVGTGHEFPIEKVKFIHFIEDSPEIRFRTPSTDRYKNWGMQYCVSASRDRTIKIWEIPLPTLMAHRAPIPNPTDSNFRCVLTLKGHLSWVRDISIRGQYLFSCADDKSVRCWDLNTGQCLHVWEKLHTGFVNCLDLDVDFDSNVTPRQMMVTGGLDCKSNVFMR
modifications: JF646-SNAP-tag ligand on the SNAP tag (fluorescent labelling)
B1 had a stoichiometry N (Pac1 dimer per dynein (MOTOR) monomer) of 1.
